Test results taken from US20230053603A1 (ADC THERAPEUTICS, published 2023).

T1: Human KAAG1 (Kidney associated antigen 1) (human, UniProt Q9UBP8 1-84)
T1 sequence: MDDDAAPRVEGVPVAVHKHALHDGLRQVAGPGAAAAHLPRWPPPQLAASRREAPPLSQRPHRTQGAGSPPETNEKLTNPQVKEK

T2: rat Dlk-1 (rat, UniProt O70534 24-306, limits assumed)
T2 sequence (looked up): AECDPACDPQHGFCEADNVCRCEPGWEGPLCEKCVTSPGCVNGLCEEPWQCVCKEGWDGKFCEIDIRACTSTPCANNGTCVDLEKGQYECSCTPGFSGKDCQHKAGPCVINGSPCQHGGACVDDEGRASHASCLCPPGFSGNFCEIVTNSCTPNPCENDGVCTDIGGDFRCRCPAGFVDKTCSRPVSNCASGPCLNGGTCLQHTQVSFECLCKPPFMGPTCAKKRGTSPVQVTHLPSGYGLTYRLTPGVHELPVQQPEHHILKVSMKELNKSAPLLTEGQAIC

B1: ConjA2 (anti-KAAG1 antibody 3A4 conjugated to drug linker 4 / PL1601) (antibody, human IgG1, kappa, V domains shown)
VH: QIQLVQSGAEVKKPGASVKVSCKASGYTFTDDYMSWVKQAPGQGLEWIGDINPYNGDTNYNQKFKGKATLTVDKSTSTAYMELSSLRSEDTAVYYCARDPGAMDYWGQGTLVTVSS
VL: DIVMTQTPLSLPVTPGEPASISCRSSQSLLHSNGNTYLEWYLQKPGQSPQLLIYTVSNRFSGVPDRFSGSGSGTDFTLKISRVEAEDVGVYYCFQGSHVPLTFGQGTKLEIKR
modifications: PBD drug linker PL1601 (4) attached through the remodelled glycan (GalNAc-N3) on Asn297; average DAR of 1.9
B2: ConjA1 (anti-DLK1 antibody HuBa-1-3d conjugated to drug linker 4) (antibody, V domains shown)
VH: QVQLVQSGAEVKKPGASVKVSCKGSGYTFTDYAMHWVRQAPGQGLEWIGVISTYYGNTNYNQKFKGKATMTVDKSTSTAYMELRSLRSDDTAVYYCARGGLREYYYAMDYWGQGTMVTVSS
VL: DIVMTQSPDSLAVSLGERATINCKSSQSLLNSSNQKNYLAWYQQKPGQPPKLLVYFASTRESGVPDRFSGSGSGTDFTLTISSLQAEDVAVYYCQQHYSTPPTFGQGTKLEIKR
modifications: PBD drug linker 4 (PL1601) attached through the remodelled glycan (GalNAc-N3) on Asn297; average DAR of 1.87
notes: also called anti-DLK1 ADC; ADC

What was measured:
[1] = target: T1, Human KAAG1 (Kidney associated antigen …); experiment: cell-based or functional assay
rat Dlk-1 = target: T2, rat Dlk-1; experiment: not described (stated in the heading of the rat toxicology study)

Binder	EC50, in vitro cytotoxicity (CellTiter-Glo) on MDA-MB-231 cells [1] [µg/mL]	EC50, in vitro cytotoxicity (CellTiter-Glo) on SN12C cells [1] [µg/mL]	binding result (rat Dlk-1)
B1	0.226	0.0663	
B2			no binding
